{"source": "patent US12728152B2", "about": "“Growth and differentiation factor 15 for treatment of proliferative vitreoretinopathy therapy” (The Board of Trustees of the Leland Stanford Junior …, priority 2020, dated 2026)", "key": {"ESC-NPCs": {"system": "ESC-NPCs", "experiment": "GDF-11-induced upregulation of EMT marker Fibronectin in ESC-NPCs (immunofluorescence)", "assay_type": "cell-based", "settings": "ESC-derived NPCs", "method": "FIG. 1. Smad2 inhibition (A) or simultaneous culture with GDF-15 (B) blocks GDF-11-induced upregulation of EMT marker Fibronectin in ESC-NPCs. Scale bar=100 μm.\n(A) ESC-derived NPCs were pre-treated with DMSO or Smad2 inhibitor SB431542 (10 μM) for 1 h and then co-treated with PBS or GDF-11 (50 ng/ml) for another 7 days before harvest. (B) SC-derived NPCs were pre-treated with PBS or GDF-15 (50 ng/ml) for 1 h and then co-treated with PBS or GDF-11 (16.7 ng/ml) for another 7 days before harvest. GDF-15 was added daily while SB431542 and GDF-11 was only added one time in the beginning. Nucleus (DPAI) and EMT (Fibronectin) marker were then detected by immunofluorescence."}, "ARPE-19 cells": {"system": "ARPE-19 cells", "experiment": "TGFβ-2-induced upregulation of phosph-Smad2 and EMT marker Fibronectin in ARPE-19 cells (Western blot)", "assay_type": "cell-based, Human", "settings": "N=3, P<0.05", "method": "FIG. 2: Simultaneous culture with GDF-15 reduces TGFβ-2-induced upregulation of phosph-Smad2 (A) and EMT marker Fibronectin (B) in ARPE-19 cells. (N=3, *P<0.05).\n(N=3, *P<0.05). Human adult retinal pigment epithelial cells (ARPE-19) were pre-treated with PBS or GDF-15 (50 ng/ml) for 1 h and then co-treated with PBS or TGFβ-2 (1 ng/ml) for another hour (A) or 2 days (B) before harvest. For Fibronection detection, GDF-15 was added daily while TGFβ-2 was only added one time in the beginning. GAPDH (loading control), p-Smad2 and Fibronectin proteins were then detected by Western blot."}}}
{"molecule": "NC(=O)c1ccc(-c2nc(-c3ccc4c(c3)OCO4)c(-c3ccccn3)[nH]2)cc1", "note": "[SB431542, reference compound]", "values": [{"measurement": "GDF-11-induced upregulation of EMT marker Fibronectin", "setting": "ESC-NPCs; SB431542 10 μM pre-treated 1 h, then co-treated with GDF-11 (50 ng/ml) 7 days", "value": "blocks"}]}
{"molecule": "GDF-15: secreted ligand of the TGF superfamily of proteins; human GDF-15 protein, SEQ ID NO: 1 (protein, listed as Homo sapiens) MPGQELRTVNGSQMLLVLLVLSWLPHGGALSLAEASRASFPGPSELHSEDSRFRELRKRYEDLLTRLRANQSWEDSNTDLVPAPAVRILTPEVRLGSGGHLHLRISRAALPEGLPEASRLHRALFRLSPTASRSWDVTRPLRRQLSLARPQAPALHLRLSPPPSQSDQLLAESSSARPQLELHLRPQAARGRRRARARNGDHCPLGPGRCCRLHTVRASLEDLGWADWVLSPREVQVTMCIGACPSQFRAANMHAQIKTSLHRLKPDTVPAPCCVPASYNPMVLIQKTDTGVSLQTYDDLLAKDCHCI", "values": [{"measurement": "TGFβ-2-induced upregulation of EMT marker Fibronectin", "setting": "ARPE-19 cells; GDF-15 50 ng/ml pre-treated 1 h (added daily), then co-treated with TGFβ-2 (1 ng/ml) 2 days", "value": "reduces"}, {"measurement": "TGFβ-2-induced upregulation of phosph-Smad2", "setting": "ARPE-19 cells; GDF-15 50 ng/ml pre-treated 1 h, then co-treated with TGFβ-2 (1 ng/ml) another hour", "value": "reduces"}, {"measurement": "GDF-11-induced upregulation of EMT marker Fibronectin", "setting": "ESC-NPCs; GDF-15 50 ng/ml pre-treated 1 h (added daily), then co-treated with GDF-11 (16.7 ng/ml) 7 days", "value": "blocks"}]}
